Results from patent US11535650 (RA PHARMACEUTICALS, dated 2022).
Starred links: 1 amine or outer side, 2 acyl side, 3 side chain; linkers in the order of their positions; H or OH if unused. Positions of bridges follow the written chain, without caps; N, C: chain ends. Non-standard residues stand in square brackets, D forms with d. Primed or numbered codes have the meaning given here. No end group written: not given here. *: point of attachment. mXylyl(3) = bridging moiety between the two residues given in brackets; Phe(3-CH2NH2) = O=C([C@H](Cc1cccc(CN[*:3])c1)N[*:1])[*:2]; mXylyl = bridging moiety between residues (mXylyl(i,j)); Trp(7-aza) = N[C@@H](Cc1c[nH]c2ncccc12)C(=O)O; mXylyl(4) = bridging moiety between residues; hPhe(3-Cl) = N[C@@H](CCc1cccc(Cl)c1)C(=O)O; ivDde = CC(C)CC(=C1C(=O)CC(C)(C)CC1=O)*; 2Nal = N[C@@H](Cc1ccc2ccccc2c1)C(=O)O; pXylylene = c1cc(C[*:2])ccc1C[*:1]; NMeD = CN[C@@H](CC(=O)O)C(=O)O; Chg = N[C@H](C(=O)O)C1CCCCC1; Phg = N[C@H](C(=O)O)c1ccccc1; Tle = CC(C)(C)[C@H](N)C(=O)O; NMeS = CN[C@@H](CO)C(=O)O; Ac5c = NC1(C(=O)O)CCCC1; Nva = CCC[C@H](N)C(=O)O; Thp = NC1(C(=O)O)CCOCC1; Aib = CC(C)(N)C(=O)O

B1: R3003 (peptide)
peptide: Ac-[Nva]CYEN[Tle]Y[Trp(7-aza)]EYP[Phg]P-NH2
SMILES: CCC[C@H](NC(C)=O)C(=O)N[C@@H](CS)C(=O)N[C@@H](Cc1ccc(O)cc1)C(=O)N[C@@H](CCC(=O)O)C(=O)N[C@@H](CC(N)=O)C(=O)N[C@H](C(=O)N[C@@H](Cc1ccc(O)cc1)C(=O)N[C@@H](Cc1c[nH]c2ncccc12)C(=O)N[C@@H](CCC(=O)O)C(=O)N[C@@H](Cc1ccc(O)cc1)C(=O)N1CCC[C@H]1C(=O)N[C@H](C(=O)N1CCC[C@H]1C(N)=O)c1ccccc1)C(C)(C)C
B2: R3076 (peptide)
peptide: VVYENGYWEYPGVK
modifications: Ac-Nvl-Nvl-Y-E-N-Tbg-Y-azaTrp-E-Y-P-Chg-Nvl-K-(BODIPY-TMR-X) NH2
notes: R3072 with BODIPY-TMR dye on the C-terminal lysine; fluorescent probe of the FP assay; also called Probe R3076; labeled probe
B3: R3023 (peptide)
peptide: Ac-YPYC[Phg][Trp(7-aza)][Tle]E[Nva]NY[Nva]E-NH2
SMILES: CCC[C@H](NC(=O)[C@H](Cc1ccc(O)cc1)NC(=O)[C@H](CC(N)=O)NC(=O)[C@H](CCC)NC(=O)[C@H](CCC(=O)O)NC(=O)[C@@H](NC(=O)[C@H](Cc1c[nH]c2ncccc12)NC(=O)[C@@H](NC(=O)[C@H](CS)NC(=O)[C@H](Cc1ccc(O)cc1)NC(=O)[C@@H]1CCCN1C(=O)[C@H](Cc1ccc(O)cc1)NC(C)=O)c1ccccc1)C(C)(C)C)C(=O)N[C@@H](CCC(=O)O)C(N)=O
notes: negative control in the FP assays; also called control polypeptide; scrambled polypeptide variant of R3002
B4: R3192 (peptide)
peptide: Ac-KVERFD[NMeD][Tle]Y[Trp(7-aza)]EYP[Chg]K-NH2
modifications: lactam 1-6
SMILES: CC(=O)N[C@H]1CCCCNC(=O)C[C@@H](C(=O)N(C)[C@@H](CC(=O)O)C(=O)N[C@H](C(=O)N[C@@H](Cc2ccc(O)cc2)C(=O)N[C@@H](Cc2c[nH]c3ncccc23)C(=O)N[C@@H](CCC(=O)O)C(=O)N[C@@H](Cc2ccc(O)cc2)C(=O)N2CCC[C@H]2C(=O)N[C@H](C(=O)N[C@@H](CCCCN)C(N)=O)C2CCCCC2)C(C)(C)C)NC(=O)[C@H](Cc2ccccc2)NC(=O)[C@H](CCCNC(=N)N)NC(=O)[C@H](CCC(=O)O)NC(=O)[C@H](C(C)C)NC1=O

What follows are binders tested against T1, human C5 protein (human, UniProt P01031 19-673; P01031 678-1676) (assay: cell-based or functional assay).
In the case of VCYENGYWEYPGV (Ac-Nvl-C-Y-E-N-Tbg-Y-azaTrp-E-Y-P-Phg-Nvl-NH2) [R3002], the “IC50, C5a EIA on supernatant of human RBC hemolysis assay” value is reported as 5.4 nM. With Ac-[Nva]C[Phg]T[Trp(7-aza)]EY[NMeS]HC[Nva]P[Nva]-NH2 (linker 2-10 via mXylyl) [R3008] the “IC50, C5a EIA on supernatant of human RBC hemolysis assay” value was 54.5 nM and the “IC50, membrane attack complex (MAC) EIA on supernatant of human RBC hemolysis assay” value was 33 nM.

Biological target: T1, human C5 protein
Test: cell-based or functional assay
Remark: another data set of the same source
For Ac-[Nva]C[Phg][Aib][Trp(7-aza)]EY[NMeS]HC[Nva]-NH2 (linker 2-10 via mXylyl(3)) [R3096], the “Avg. IC50, human hemolysis assay (complete human sera)” value (from here on “Avg. IC50, human hemolysis assay”) was greater than 50000 nM. For Ac-[Nva]C[Phg]T[Trp(7-aza)]NY[NMeS]AC[Nva]-NH2 (linker 2-10 via mXylyl(4)) [R3099], the “Avg. IC50, human hemolysis assay” value was greater than 100000 nM. B1 was tested, and the “Avg. IC50, human hemolysis assay” value was 13.9 nM. With Ac-[Nva]C[Phg]T[Trp(7-aza)]EY[NMeS]HC[Nva]P-NH2 (linker 2-10 via mXylyl) [R3011] the “Avg. IC50, human hemolysis assay” value was 112 nM. For Ac-[Nva]C[Phg]T[Trp(7-aza)]DY[NMeS]AC[Nva]-NH2 (linker 2-10 via mXylyl(4)) [R3097], the “Avg. IC50, human hemolysis assay” value was greater than 100000 nM. For Ac-[Nva]C[Phg]T[Trp(7-aza)]EY[NMeS]HC[Nva]-NH2 (linker 2-10 via pXylylene) [R3050], the “Avg. IC50, human hemolysis assay” value was 42.9 nM. For Ac-[Nva]C[Phg]T[Trp(7-aza)]EY[NMeS]HC[Nva]P[Nva]-NH2 (linker 2-10 via mXylyl) [R3008], the “Avg. IC50, human hemolysis assay” value was 97 nM. With B2 the “Avg. IC50, human hemolysis assay” value was 297 nM. With Ac-[Nva]C[Phg]T[Trp(7-aza)]QY[NMeS]AC[Nva]-NH2 (linker 2-10 via mXylyl(4)) [R3098] the “Avg. IC50, human hemolysis assay” value was greater than 100000 nM. Ac-C[Phg]T[Trp(7-aza)]EY[NMeS]HC[Nva]P[Nva]-NH2 (linker 1-9 via mXylyl) [R3014] was tested, and the “Avg. IC50, human hemolysis assay” value was 1420 nM. In the case of B3, the “Avg. IC50, human hemolysis assay” value is reported as greater than 100000 nM. In the case of Ac-[Nva]C[Phg]T[Trp(7-aza)]EF[NMeS]AC[Nva]-NH2 (linker 2-10 via mXylyl(4)) [R3100], the “Avg. IC50, human hemolysis assay” value is reported as 626 nM. MCVERFCDVYWE-NH2 (linker 2-7 via mXylyl) [R3043] was tested, and the “Avg. IC50, human hemolysis assay” value was 934 nM.

Biological target: T1, human C5 protein
Test: cell-based or functional assay
Remark: another data set of the same source
For Ac-CVERFCD[Tle]Y[Trp(7-aza)]EWP[Chg][Nva] (linker 1-6 via mXylyl(3)) [R3177], the “Avg. IC50, hemolysis assay (C5 depleted sera + purified human C5)” value (shortened to “Avg. IC50, hemolysis assay”) was 12 nM. With Ac-CVERFCD[Tle]Y[Trp(7-aza)]E[hPhe(3-Cl)]P[Chg][Nva] (linker 1-6 via mXylyl(3)) [R3179] the “Avg. IC50, hemolysis assay” value was 83 nM. For Ac-CVERFCD[Tle]Y[Phe(3-CH2NH2)]EYP[Chg][Nva] (linker 1-6 via mXylyl(3)) [R3181], the “Avg. IC50, hemolysis assay” value was 1500 nM. With Ac-CVERFC[Ac5c][Tle]Y[Trp(7-aza)]EYP[Chg][Nva] (linker 1-6 via mXylyl(3)) [R3185] the “Avg. IC50, hemolysis assay” value was 12.5 nM. With Ac-KVERFD[NMeD][Tle]Y[Trp(7-aza)]EYP[Chg]K(C16)-NH2 (lactam 1-6) [R3194] the “Avg. IC50, hemolysis assay” value was 15.5 nM. Ac-KVERFD[NMeD][Tle]YWEYP[Chg]K(C16) (lactam 1-6) [R3195] was tested, and the “Avg. IC50, hemolysis assay” value was 62.5 nM. Ac-KVERFD[NMeD][Tle]YWEYP[Chg]K (lactam 1-6) [R3196] was tested, and the “Avg. IC50, hemolysis assay” value was 3 nM. In the case of VERFCDGYWEYPGV ([cyclo-thioalkyl(1,5)]V-E-R-F-C-D-Tbg-Y-azaTrp-E-Y-P-Chg-Nvl) [R3184], the “Avg. IC50, hemolysis assay” value is reported as 4 nM. Ac-CVERFC[Thp][Tle]Y[Trp(7-aza)]EYP[Chg][Nva] (linker 1-6 via mXylyl(3)) [R3186] was tested, and the “Avg. IC50, hemolysis assay” value was 18 nM. With [(desamino)Cys]VERFC[NMeD][Tle]Y[Trp(7-aza)]EYP[Chg]K(C16) (bridge 1-6) [R3198] the “Avg. IC50, hemolysis assay” value was 142 nM. With [(desamino)Cys][dA]ERFC[NMeD][Tle]Y[Trp(7-aza)]EYP[Chg]K(C16) (bridge 1-6) [R3199] the “Avg. IC50, hemolysis assay” value was 112 nM. B4 was tested, and the “Avg. IC50, hemolysis assay” value was 1.5 nM. In the case of Ac-KVERFD[NMeD][Tle]YWEYP[Chg]K(ivDde) (lactam 1-6) [R3197], the “Avg. IC50, hemolysis assay” value is reported as 4 nM. For Ac-CVERFCD[Tle]Y[Trp(7-aza)]E[2Nal]P[Chg][Nva] (linker 1-6 via mXylyl(3)) [R3180], the “Avg. IC50, hemolysis assay” value was 29 nM. For Ac-CAERFCD[Tle]Y[Trp(7-aza)]EYP[Phg]K(C16) (linker 1-6 via mXylyl(3)) [R3189], the “Avg. IC50, hemolysis assay” value was 81.5 nM.

These binders were tested against T1, human C5 protein (assay: competitive fluorescence polarization vs probe R3076, Exp 1).
Description: (§1) Test articles listed in Table 7 were subsequently diluted in DMSO then assay buffer, comprising 10 2-fold dilutions and were then added to the assay plate in triplicate, rapidly. The assay plate was then incubated in the Paradigm (Molecular Devices, Sunnyvale, Calif.) plate reader for 60 minutes at 25° C.
(§2) After incubation for 60 minutes, the plate was read using the Paradigm FP protocol (Molecular Devices, Sunnyvale, Calif.) and raw polarization values were imported into Graphpad Prism.
B1 gave an IC50 of 72.7 nM and a Ki of 10.4 nM. In the case of Ac-[Nva]C[Phg]T[Trp(7-aza)]EY[NMeS]HC[Nva]P-NH2 (linker 2-10 via mXylyl) [R3011], the IC50 is reported as 295 nM and the Ki is reported as 73.2 nM. In the case of Ac-[Nva]C[Phg]T[Trp(7-aza)]EY[NMeS]HC[Nva]-NH2 (linker 2-10 via pXylylene) [R3050], the IC50 is reported as 267 nM and the Ki is reported as 71.1 nM. For Ac-C[Phg]T[Trp(7-aza)]EY[NMeS]HC[Nva]P[Nva]-NH2 (linker 1-9 via mXylyl) [R3014], the IC50 was 6060 nM and the Ki was 1400 nM. B3 showed an IC50 greater than 1000 nM and a Ki greater than 1000 nM. MCVERFCDVYWE-NH2 (linker 2-7 via mXylyl) [R3043] showed an IC50 of 4330 nM and a Ki of 866 nM.

These binders were tested against T1, human C5 protein (assay: competitive fluorescence polarization vs probe R3076, Exp 2).
Description: as §1, §2
Binder B1 has an IC50 of 64.1 nM and a Ki of 8.69 nM. With Ac-[Nva]C[Phg]T[Trp(7-aza)]EY[NMeS]HC[Nva]P-NH2 (linker 2-10 via mXylyl) [R3011] the IC50 was 261 nM and the Ki was 86.9 nM. Ac-[Nva]C[Phg]T[Trp(7-aza)]EY[NMeS]HC[Nva]-NH2 (linker 2-10 via pXylylene) [R3050] showed an IC50 of 293 nM and a Ki of 57.6 nM. Ac-C[Phg]T[Trp(7-aza)]EY[NMeS]HC[Nva]P[Nva]-NH2 (linker 1-9 via mXylyl) [R3014] gave an IC50 of 7580 nM and a Ki of 1580 nM. With B3 the IC50 was greater than 1000 nM and the Ki was greater than 1000 nM. Work on MCVERFCDVYWE-NH2 (linker 2-7 via mXylyl) [R3043] yielded an IC50 of 4120 nM and a Ki of 882 nM.

The binders below were run against T1, human C5 protein (assay: competitive fluorescence polarization vs probe R3076, average of two experiments).
Description: as §1, §2
In the case of B1, the IC50 is reported as 68.4 nM and the Ki is reported as 9.54 nM. For Ac-[Nva]C[Phg]T[Trp(7-aza)]EY[NMeS]HC[Nva]P-NH2 (linker 2-10 via mXylyl) [R3011], the IC50 was 278 nM and the Ki was 80 nM. Ac-[Nva]C[Phg]T[Trp(7-aza)]EY[NMeS]HC[Nva]-NH2 (linker 2-10 via pXylylene) [R3050] was tested, and the IC50 was 280 nM and the Ki was 64.3 nM. In the case of Ac-C[Phg]T[Trp(7-aza)]EY[NMeS]HC[Nva]P[Nva]-NH2 (linker 1-9 via mXylyl) [R3014], the IC50 is reported as 6820 nM and the Ki is reported as 1500 nM. Binder B3 has an IC50 greater than 1000 nM and a Ki greater than 1000 nM. For MCVERFCDVYWE-NH2 (linker 2-7 via mXylyl) [R3043], the IC50 was 4230 nM and the Ki was 874 nM.

These binders were tested against T1, human C5 protein (assay: fluorescence polarization, 25 nM R3076 with increasing concentrations of C5, average of 10 to 60 minutes).
Description: Polarization was measured over time, until binding reached equilibrium. K_D was determined using Graphpad Prism (using "Saturating Binding Curves, One Site—Specific Binding With Hill Slope" as the curve fit to determine K_D).
Binder B2 has a Kd of 8.07 nM.
